Reference: paper PMC11315935, “Multi-layered heterochromatin interaction as a switch for DIM2-mediated DNA methylation” (Nature Communications, 2024)
Positions count from the first letter of the chain named. Names and notes keep the numbering of the source. “Also recorded” adds a separate entry of the source.

B1: DIM2R1104A: DIM2 with TRD mutation R1104A (protein)
chain: MDSPDRSHGGMFIDVPAETMGFQEDYLDMFASVLSQGLAKEGDYAHHQPLPAGKEECLEPIAVATTITPSPDDPQLQLQLELEQQFQTESGLNGVDPAPAPESEDEADLPDGFSDESPDDDFVVQRSKHITVDLPVSTLINPRSTFQRIDENDNLVPPPQSTPERVAVEDLLKAAKAAGKNKEDYIEFELHDFNFYVNYAYHPQEMRPIQLVATKVLHDKYYFDGVLKYGNTKHYVTGMQVLELPVGNYGASLHSVKGQIWVRSKHNAKKEIYYLLKKPAFEYQRYYQPFLWIADLGKHVVDYCTRMVERKREVTLGCFKSDFIQWASKAHGKSKAFQNWRAQHPSDDFRTSVAANIGYIWKEINGVAGAKRAAGDQLFRELMIVKPGQYFRQEVPPGPVVTEGDRTVAATIVTPYIKECFGHMILGKVLRLAGEDAEKEKEVKLAKRLKIENKNATKADTKDDMKNDTATESLPTPLRSLPVQVLEATPIESDIVSIVSSDLPPSENNPPPLTNGSVKPKAKANPKPKPSTQPLHAAHVKYLSQELVNKIKVGDVISTPRDDSSNTDTKWKPTDTDDHRWFGLVQRVHTAKTKSSGRGLNSKSFDVIWFYRPEDTPCCAMKYKWRNELFLSNHCTCQEGHHARVKGNEVLAVHPVDWFGTPESNKGEFFVRQLYESEQRRWITLQKDHLTCYHNQPPKPPTAPYKPGDTVLATLSPSDKFSDPYEVVEYFTQGEKETAFVRLRKLLRRRKVDRQDAPANELVYTEDLVDVRAERIVGKCIMRCFRPDERVPSPYDRGGTGNMFFITHRQDHGRCVPLDTLPPTLRQGFNPLGNLGKPKLRGMDLYCGGGNFGRGLEEGGVVEMRWANDIWDKAIHTYMANTPDPNKTNPFLGSVDDLLRLALEGKFSDNVPRPGEVDFIAAGSPCPGFSLLTQDKKVLNQVKNQSLVASFASFVDFYRPKYGVLENVSGIVQTFVNRKQDVLSQLFCALVGMGYQAQLILGDAWAHGAPQSRERVFLYFAAPGLPLPDPPLPSHSHYRVKNRNIGFLCNGESYVQRSFIPTAFKFVSAGEGTADLPKIGDGKPDACVRFPDHRLASGITPYIAAQYACIPTHPYGMNFIKAWNNGNGVMSKSDRDLFPSEGKTRTSDASVGWKRLNPKTLFPTVTTTSNPSDARMGPGLHWDEDRPYTVQEMRRAQGYLDEEVLVGRTTDQWKLVGNSVSRHMALAIGLKFREAWLGTLYD
modifications: left off: His6, N-terminal, cleaved | MBP, N-terminal, cleaved
notes: DIM2 with TRD mutation R1104A
B2: DIM2L134A/L139A: DIM2 L134A/L139A double mutation (protein)
chain: B1 chain with L134A, L139A, A1104R
modifications: left off: His6, N-terminal, cleaved | MBP, N-terminal, cleaved
notes: DIM2 L134A/L139A double mutation
B3: DIM2LLR: DIM2 L134A/L139A/R1104A triple mutation (protein)
chain: B1 chain with L134A, L139A
modifications: left off: His6, N-terminal, cleaved | MBP, N-terminal, cleaved
notes: DIM2 L134A/L139A/R1104A triple mutation
B4: DIM2W261A: DIM2 with W261A mutation to the RFTS domain (protein)
chain: B1 chain with W261A, A1104R
modifications: left off: His6, N-terminal, cleaved | MBP, N-terminal, cleaved
notes: DIM2 with W261A mutation to the RFTS domain
B5: DIM2W581A: DIM2 with W581A mutation to the BAH1 domain (protein)
chain: B1 chain with W581A, A1104R
modifications: left off: His6, N-terminal, cleaved | MBP, N-terminal, cleaved
notes: DIM2 with W581A mutation to the BAH1 domain

What was measured:
[1] = system: (CTA)12/(TAG)12 36-mer DNA duplex; test: In vitro DNA methylation assay of DIM2 (WT or mutant); format: biochemical; design: DNA methylation activity: unit not given here; settings: for reduction of DNA methylation efficiency of DIM2 by mutation: vs WT DIM2
[2] = Thermal shift assay, protein alone; format: physicochemical; settings: 5 μM DIM2 or 10 µM HP1, pH 7.5, 1× GloMelt Dye, 4 to 95 °C, triplicate
Description: Thermal shift assays were performed for WT and R1104A DIM2 proteins using a Bio-Rad CFX Connect Real-Time PCR Detection System. Each 20-µL reaction mixture contained 5 μM WT or R1104A-mutated DIM2, and/or 10 µM HP1 protein, dissolved in buffer containing 20 mM Tris-HCl (pH 7.5), 100 mM NaCl, 5% glycerol, 5 mM DTT, and 1× GloMelt Dye (Biotium). The sample plates were subject to heat from 4 to 95 °C with a stepwise increment of 5 °C. Fluorescence intensity was recorded with the excitation and emission wavelength of 470 nm and 510 nm, respectively. The experiments were carried out in triplicate.

HP1 = test: Size-exclusion chromatography of DIM2-HP1 complex; format: binding, Neurospora Crassa; settings: 1.0 µM DIM2 and/or 2.5 µM HP1, Superdex 200 increase 10/300 GL, pH 7.5
Description: For size-exclusion chromatography analysis, 400 µL of the sample mixture containing 1.0 µM DIM2 and/or 2.5 µM HP1 was loaded onto Superdex 200 increase 10/300 GL column (GE Healthcare) and eluted at a flow rate of 0.5 mL/min, in the buffer containing 20 mM Tris-HCl (pH 7.5), 100 mM NaCl, 5% glycerol, and 5 mM DTT. The proteins in each fraction were then visualized by SDS-PAGE.

[3] = system: DNA duplex (Upper strand: 5’-ATTATTAATCTAAATTTA-3’); test: Electrophoretic mobility shift assay (EMSA); format: binding; settings: 0.1 µM DNA duplex, 0, 0.2 or 0.4 µM DIM2, in presence of 0.8 µM H3K9me3 peptide, pH 8.0, 4 °C
Description: Each 10-µL reaction mixture contained 0.1 µM DNA duplex (Upper strand: 5’-[…]-3’) mixed with 0, 0.2, or 0.4 µM DIM2, WT or mutant (W261A or W581A), and/or 0.8 µM H3K9me3 peptide in binding buffer containing 20 mM Tris-HCl (pH 8.0), 75 mM NaCl, 10% glycerol, 5 mM DTT, and 2% NP-40. Samples were resolved on a 5% w/v polyacrylamide gel (59:1 for acrylamide:bis-acrylamide) with the running buffer containing 1 × Tris-Glycine (pH 8.6) at 4 °C for 1 h. The gel was stained with SYBR™ Gold (Thermo Fisher Scientific) for 10 min and visualized by ChemiDoc Imaging System (Bio-Rad).

[4] = Fig. 2g, in the presence of HP1 (2 µM) and H3_1-24K9me3 peptide (1.0 µM), 1.0 µM DIM2, 30 °C, 30 min, pH 8.0, replicate 1
[5] = Fig. 2g, in the presence of HP1 (2 µM) and H3_1-24K9me3 peptide (1.0 µM), 1.0 µM DIM2, 30 °C, 30 min, pH 8.0, replicate 2
[6] = Fig. 2g, in the presence of HP1 (2 µM) and H3_1-24K9me3 peptide (1.0 µM), 1.0 µM DIM2, 30 °C, 30 min, pH 8.0, replicate 3
[7] = Fig. 6d, H3_1-24K9me3 binding-associated mutants, 1.0 µM DIM2, 1.0 µM DNA duplex, 30 °C, 30 min, pH 8.0, replicate 1
[8] = Fig. 6d, H3_1-24K9me3 binding-associated mutants, 1.0 µM DIM2, 1.0 µM DNA duplex, 30 °C, 30 min, pH 8.0, replicate 2
[9] = Fig. 6d, H3_1-24K9me3 binding-associated mutants, 1.0 µM DIM2, 1.0 µM DNA duplex, 30 °C, 30 min, pH 8.0, replicate 3

Molecule	DIM2-HP1 complex formation (in words) (HP1)	DNA methylation activity [1, 4]	DNA methylation activity [1, 5]	DNA methylation activity [1, 6]	DNA methylation activity [1, 7]	DNA methylation activity [1, 8]	DNA methylation activity [1, 9]	reduction of DNA methylation efficiency of DIM2 by mutation [1]	DNA-binding affinity of DIM2 (in words) [3]	further results
B1	did not affect the assembly of the DIM2-HP1 complex appreciably; also recorded: barely impacts the association of the DIM2-HP1 complex									DNA methylation activity ([1]; Fig. 3h, in the presence of HP1 (2 µM) and H3_1-24K9me3 peptide (1.0 µM), 1.0 µM DIM2, 30 °C, 30 min, pH 8.0, replicate 1): 3.1; DNA methylation activity ([1]; Fig. 3h, in the presence of HP1 (2 µM) and H3_1-24K9me3 peptide (1.0 µM), 1.0 µM DIM2, 30 °C, 30 min, pH 8.0, replicate 2): 2.552; DNA methylation activity ([1]; Fig. 3h, in the presence of HP1 (2 µM) and H3_1-24K9me3 peptide (1.0 µM), 1.0 µM DIM2, 30 °C, 30 min, pH 8.0, replicate 3): 2.87; melting temperature (Tm) [2]: 39.5 °C
B2	partial disruption of the DIM2-HP1 complex	1.016	1.136	1.188						
B3	complete disruption of the DIM2-HP1 complex	0.066	0.154	0.275						DNA methylation activity of DIM2 (in words) ([1]; 1.0 µM DIM2, 30 °C, 30 min, pH 8.0): completely abolished the DNA methylation activity
B4					3.359	3.206	3.347	4–5 fold	modestly reduced the DNA-binding affinity	
B5					4.016	4.128	4.356	4–5 fold	modestly reduced the DNA-binding affinity	
